Assay results reported in patent US20080305116A1 (published 2008).

Key:
CD154 on D1.1 cells = target: T1, CD154 on D1.1 cells (human, UniProt P29965 1-261); test: cell-based or functional assay
T1 sequence (looked up): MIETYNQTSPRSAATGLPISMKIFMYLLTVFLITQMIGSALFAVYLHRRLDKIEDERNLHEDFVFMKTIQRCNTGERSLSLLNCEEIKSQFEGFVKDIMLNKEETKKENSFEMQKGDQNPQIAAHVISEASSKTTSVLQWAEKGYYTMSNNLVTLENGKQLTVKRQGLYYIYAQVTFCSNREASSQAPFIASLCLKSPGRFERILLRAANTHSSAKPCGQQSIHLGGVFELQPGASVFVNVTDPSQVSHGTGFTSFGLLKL

[1] = target: T2, human CD154, soluble antigen (human, UniProt P29965 116-261, limits assumed); test: KinExA solution-phase equilibrium, Fab with soluble antigen
T2 construct: KinExA uses 'soluble antigen'; also called CD40 ligand; CD40L
T2 sequence (looked up): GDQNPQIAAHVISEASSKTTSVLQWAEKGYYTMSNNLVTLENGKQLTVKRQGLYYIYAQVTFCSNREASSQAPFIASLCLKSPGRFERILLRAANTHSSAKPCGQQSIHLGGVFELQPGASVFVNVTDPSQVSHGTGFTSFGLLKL

[2] = target: T2, human CD154, soluble antigen; test: assay not named in the sentence (the paragraph speaks of competitive ELISA)
[3] = target: T2, human CD154, soluble antigen; test: ELISA-based competitive binding assay; unlabeled Fab against biotin-labeled 5c8 Fab competitor
[4] = target: T2, human CD154, soluble antigen; test: assay not given

Row | Binder | IC50 (ug/ml), T cell-dependent B cell activation assay (CD154 on D1.1 cells) [µg/mL] | Kd [1] [pM] | fold higher affinity compared to the wildtype 5c8 Fab [2] [fold] | ELISA fold-improvement over wildtype [3] [fold] | fold higher affinity compared to the wild type [4] [fold]
1 | 5c8 Fab Mutant #14 (light chain S26D/Q27E) (Fab, V domains shown, also called double mutant) VH: QVQLVQSGAEVVKPGASVKLSCKASGYIFTSYYMYWVKQAPGQGLEWIGEINPSNGDTNFNEKFKSKATLTVDKSASTAYMELSSLRSEDTAVYYCTRSDGRNDMDSWGQGTLVTVSS VL: DIVLTQSPATLSVSPGERATISCRADERVSSSTYSYMHWYQQKPGQPPKLLIKYASNLESGVPARFSGSGSGTDFTLTISSVEPEDFATYYCQHSWEIPPTFGGGTKLEIK | 0.287 | 41 | 9 | 5.6 | 
2 | 5c8 Fab Mutant #15 (light chain S26D/Q27E/T33W) (Fab, V domains shown) VH: QVQLVQSGAEVVKPGASVKLSCKASGYIFTSYYMYWVKQAPGQGLEWIGEINPSNGDTNFNEKFKSKATLTVDKSASTAYMELSSLRSEDTAVYYCTRSDGRNDMDSWGQGTLVTVSS VL: DIVLTQSPATLSVSPGERATISCRADERVSSSWYSYMHWYQQKPGQPPKLLIKYASNLESGVPARFSGSGSGTDFTLTISSVEPEDFATYYCQHSWEIPPTFGGGTKLEIK |  | 44 |  | 3.8 | 
3 | 5c8 Fab Mutant #16 (heavy T30H; light S26D/Q27E) (Fab, V domains shown) VH: QVQLVQSGAEVVKPGASVKLSCKASGYIFHSYYMYWVKQAPGQGLEWIGEINPSNGDTNFNEKFKSKATLTVDKSASTAYMELSSLRSEDTAVYYCTRSDGRNDMDSWGQGTLVTVSS VL: DIVLTQSPATLSVSPGERATISCRADERVSSSTYSYMHWYQQKPGQPPKLLIKYASNLESGVPARFSGSGSGTDFTLTISSVEPEDFATYYCQHSWEIPPTFGGGTKLEIK |  | 70 |  | 5.8 | 
4 | 5c8 Fab Mutant #17 (heavy Y33W; light S26D/Q27E/T33W) (Fab, V domains shown) VH: QVQLVQSGAEVVKPGASVKLSCKASGYIFTSYWMYWVKQAPGQGLEWIGEINPSNGDTNFNEKFKSKATLTVDKSASTAYMELSSLRSEDTAVYYCTRSDGRNDMDSWGQGTLVTVSS VL: DIVLTQSPATLSVSPGERATISCRADERVSSSWYSYMHWYQQKPGQPPKLLIKYASNLESGVPARFSGSGSGTDFTLTISSVEPEDFATYYCQHSWEIPPTFGGGTKLEIK | 0.131 | 23 |  | 5.9 | 
5 | 5c8 Fab Mutant #18 (heavy T30H; light S26D/Q27E/T33W) (Fab, V domains shown) VH: QVQLVQSGAEVVKPGASVKLSCKASGYIFHSYYMYWVKQAPGQGLEWIGEINPSNGDTNFNEKFKSKATLTVDKSASTAYMELSSLRSEDTAVYYCTRSDGRNDMDSWGQGTLVTVSS VL: DIVLTQSPATLSVSPGERATISCRADERVSSSWYSYMHWYQQKPGQPPKLLIKYASNLESGVPARFSGSGSGTDFTLTISSVEPEDFATYYCQHSWEIPPTFGGGTKLEIK |  | 54 |  | 5.4 | 
6 | 5c8 Fab Mutant #23 (heavy Y33W; light S26D/Q27E) (Fab, V domains shown) VH: QVQLVQSGAEVVKPGASVKLSCKASGYIFTSYWMYWVKQAPGQGLEWIGEINPSNGDTNFNEKFKSKATLTVDKSASTAYMELSSLRSEDTAVYYCTRSDGRNDMDSWGQGTLVTVSS VL: DIVLTQSPATLSVSPGERATISCRADERVSSSTYSYMHWYQQKPGQPPKLLIKYASNLESGVPARFSGSGSGTDFTLTISSVEPEDFATYYCQHSWEIPPTFGGGTKLEIK |  | 53 |  | 5.2 | 
7 | 5c8 Fab Mutant #24 (heavy T30H/Y33W; light S26D/Q27E) (Fab, V domains shown) VH: QVQLVQSGAEVVKPGASVKLSCKASGYIFHSYWMYWVKQAPGQGLEWIGEINPSNGDTNFNEKFKSKATLTVDKSASTAYMELSSLRSEDTAVYYCTRSDGRNDMDSWGQGTLVTVSS VL: DIVLTQSPATLSVSPGERATISCRADERVSSSTYSYMHWYQQKPGQPPKLLIKYASNLESGVPARFSGSGSGTDFTLTISSVEPEDFATYYCQHSWEIPPTFGGGTKLEIK |  | 52 |  | 8 | 
8 | 5c8 Fab Mutant #25 (heavy T30H/Y33W; light S26D/Q27E/T33W) (Fab, V domains shown) VH: QVQLVQSGAEVVKPGASVKLSCKASGYIFHSYWMYWVKQAPGQGLEWIGEINPSNGDTNFNEKFKSKATLTVDKSASTAYMELSSLRSEDTAVYYCTRSDGRNDMDSWGQGTLVTVSS VL: DIVLTQSPATLSVSPGERATISCRADERVSSSWYSYMHWYQQKPGQPPKLLIKYASNLESGVPARFSGSGSGTDFTLTISSVEPEDFATYYCQHSWEIPPTFGGGTKLEIK | 0.165 | 12 |  | 5.6 | 25
